Experimental data: PMC8622909 (Pharmaceuticals, 2021)

T1: UGT1A9 (Homo sapiens, UniProt O60656)
T1 construct: human recombinant UGT1A9
T1 sequence (O60656 26-530): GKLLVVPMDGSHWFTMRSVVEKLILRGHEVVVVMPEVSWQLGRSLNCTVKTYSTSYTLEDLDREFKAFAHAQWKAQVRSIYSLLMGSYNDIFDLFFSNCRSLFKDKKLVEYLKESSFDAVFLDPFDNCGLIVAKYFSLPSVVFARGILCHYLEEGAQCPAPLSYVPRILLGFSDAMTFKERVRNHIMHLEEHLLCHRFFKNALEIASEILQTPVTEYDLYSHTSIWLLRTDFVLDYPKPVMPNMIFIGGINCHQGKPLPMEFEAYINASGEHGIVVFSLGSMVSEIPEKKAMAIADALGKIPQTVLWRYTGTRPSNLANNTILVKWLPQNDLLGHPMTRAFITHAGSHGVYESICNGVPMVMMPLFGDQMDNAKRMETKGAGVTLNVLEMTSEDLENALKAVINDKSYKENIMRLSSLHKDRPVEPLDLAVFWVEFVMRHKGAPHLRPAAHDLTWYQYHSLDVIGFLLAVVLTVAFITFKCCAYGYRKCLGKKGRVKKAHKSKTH


What was measured:
UGT1A9 = target: T1, UGT1A9; assay: inhibition of PTU glucuronidation by recombinant UGT1A9, HPLC-MS/MS; type: biochemical; details: read-out: Magnolol IC50
purified protein = substrate: CCCc1cc(=O)[nH]c(=S)[nH]1; assay: purified protein; details: UDPGA

| Molecule | IC50 (UGT1A9) | Km (purified protein) | Vmax (purified protein) |
| --- | --- | --- | --- |
| C=CCc1ccc(O)c(-c2cc(CC=C)ccc2O)c1 [magnolol] | 1160 nM |  |  |
| UGT1A9 (Homo sapiens) (protein) GKLLVVPMDGSHWFTMRSVVEKLILRGHEVVVVMPEVSWQLGRSLNCTVKTYSTSYTLEDLDREFKAFAHAQWKAQVRSIYSLLMGSYNDIFDLFFSNCRSLFKDKKLVEYLKESSFDAVFLDPFDNCGLIVAKYFSLPSVVFARGILCHYLEEGAQCPAPLSYVPRILLGFSDAMTFKERVRNHIMHLEEHLLCHRFFKNALEIASEILQTPVTEYDLYSHTSIWLLRTDFVLDYPKPVMPNMIFIGGINCHQGKPLPMEFEAYINASGEHGIVVFSLGSMVSEIPEKKAMAIADALGKIPQTVLWRYTGTRPSNLANNTILVKWLPQNDLLGHPMTRAFITHAGSHGVYESICNGVPMVMMPLFGDQMDNAKRMETKGAGVTLNVLEMTSEDLENALKAVINDKSYKENIMRLSSLHKDRPVEPLDLAVFWVEFVMRHKGAPHLRPAAHDLTWYQYHSLDVIGFLLAVVLTVAFITFKCCAYGYRKCLGKKGRVKKAHKSKTH |  | 15.27 ± 7.73 µM | 0.352 µmol/min/mg |
